# Assay results: article PMC9482650, “Quantitative fragmentomics allow affinity mapping of interactomes” (Nature Communications, 2022)
# T1: SHANK1, Q9Y566
# T1 sequence (Q9Y566 658-767, limits assumed, looked up): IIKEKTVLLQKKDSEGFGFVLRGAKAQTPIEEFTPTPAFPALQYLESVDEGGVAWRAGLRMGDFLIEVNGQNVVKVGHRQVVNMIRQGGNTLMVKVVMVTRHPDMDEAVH
# T2: GRIP1_5, Q9Y3R0
# T2 sequence (Q9Y3R0 568-668, limits assumed, looked up): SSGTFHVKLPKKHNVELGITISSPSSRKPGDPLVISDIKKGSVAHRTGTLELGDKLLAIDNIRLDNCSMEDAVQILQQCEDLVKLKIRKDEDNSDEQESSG
# T3: DLG3_1, Q92796
# T3 sequence (Q92796 125-227, limits assumed, looked up): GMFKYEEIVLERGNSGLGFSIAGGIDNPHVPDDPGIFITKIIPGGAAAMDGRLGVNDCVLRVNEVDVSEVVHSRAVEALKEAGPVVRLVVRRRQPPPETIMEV
# T4: PDZD7_3, Q9H5P4
# T4 sequence (Q9H5P4 857-944, limits assumed, looked up): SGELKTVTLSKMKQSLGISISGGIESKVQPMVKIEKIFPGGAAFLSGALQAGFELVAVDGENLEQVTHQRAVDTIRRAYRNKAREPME
# T5: TJP3_3, O95049
# T5 sequence (O95049 375-456, limits assumed, looked up): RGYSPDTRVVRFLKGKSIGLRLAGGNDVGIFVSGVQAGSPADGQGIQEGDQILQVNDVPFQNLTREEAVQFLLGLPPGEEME
# T6: APBA2_2, Q99767
# T6 sequence (Q99767 654-744, limits assumed, looked up): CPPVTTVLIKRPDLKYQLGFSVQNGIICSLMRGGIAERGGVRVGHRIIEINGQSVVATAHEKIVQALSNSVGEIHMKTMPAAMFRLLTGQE
# T7: SYNJ2BP, P57105
# T7 sequence (P57105 8-110, limits assumed, looked up): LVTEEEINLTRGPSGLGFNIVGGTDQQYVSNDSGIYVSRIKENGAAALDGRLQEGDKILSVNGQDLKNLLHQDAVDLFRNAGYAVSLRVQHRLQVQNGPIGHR
# T8: SNTB1, Q13884
# T8 sequence (Q13884 107-205, limits assumed, looked up): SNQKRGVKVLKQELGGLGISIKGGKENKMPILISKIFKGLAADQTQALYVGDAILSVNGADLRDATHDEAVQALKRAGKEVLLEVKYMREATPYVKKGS
# T9: SNTA1, Q13424
# T9 sequence (Q13424 82-180, limits assumed, looked up): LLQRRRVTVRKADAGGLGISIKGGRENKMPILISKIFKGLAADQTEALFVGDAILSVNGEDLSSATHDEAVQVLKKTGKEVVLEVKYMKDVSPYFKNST
# T10: SIPA1L2, Q9P2F8
# T10 sequence (Q9P2F8 945-1036, limits assumed, looked up): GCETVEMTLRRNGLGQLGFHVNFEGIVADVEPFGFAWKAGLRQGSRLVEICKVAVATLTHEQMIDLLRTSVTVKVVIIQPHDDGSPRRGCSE
# T11: DVL3, Q92997
# T11 sequence (Q92997 244-331, limits assumed, looked up): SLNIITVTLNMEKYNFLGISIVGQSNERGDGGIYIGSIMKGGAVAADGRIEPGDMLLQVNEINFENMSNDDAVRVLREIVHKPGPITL
# T12: APBA3_1, O96018
# T12 sequence (O96018 389-490, limits assumed, looked up): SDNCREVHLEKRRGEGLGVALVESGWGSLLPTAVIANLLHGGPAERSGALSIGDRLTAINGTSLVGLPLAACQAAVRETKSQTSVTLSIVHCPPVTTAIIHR
# T13: CARD11, Q9BXL7
# T13 sequence (Q9BXL7 662-765, limits assumed, looked up): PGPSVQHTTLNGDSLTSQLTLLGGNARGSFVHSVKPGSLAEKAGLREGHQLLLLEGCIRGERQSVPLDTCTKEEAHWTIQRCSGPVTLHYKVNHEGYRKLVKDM
# B1: PLEKHA2, Q9HB19 (peptide)
# chain: DDENIRTSDV
# Molecular target: T1, SHANK1, Q9Y566
# Test: holdup assay
# Design: key: below the threshold = too weak to quantify, mostly under pKd 3.1 to 4
# Conditions: plain residues with an end cap or a label only (N-terminal biotin on a linker: ado-ado)
row,pKd,Binder
1,below the threshold,B1

# Molecular target: MAGI2_6, Q86UL8
# Test: holdup assay
# Design: key: below the threshold = too weak to quantify, mostly under pKd 3.1 to 4
# Conditions: plain residues with an end cap or a label only (N-terminal biotin on a linker: ado-ado)
# Chain of MAGI2_6, Q86UL8 (Q86UL8 1141-1229): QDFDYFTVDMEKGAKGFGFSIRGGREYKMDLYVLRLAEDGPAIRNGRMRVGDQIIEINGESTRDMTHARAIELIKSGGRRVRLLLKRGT
row,pKd,Binder
1,5.21,B1

# Molecular target: T2, GRIP1_5, Q9Y3R0
# Test: holdup assay
# Design: key: below the threshold = too weak to quantify, mostly under pKd 3.1 to 4
# Conditions: plain residues with an end cap or a label only (N-terminal biotin on a linker: ado-ado)
row,pKd,Binder
1,below the threshold,B1

# Molecular target: T3, DLG3_1, Q92796
# Test: holdup assay
# Design: key: below the threshold = too weak to quantify, mostly under pKd 3.1 to 4
# Conditions: plain residues with an end cap or a label only (N-terminal biotin on a linker: ado-ado)
row,pKd,Binder
1,below the threshold,B1

# Molecular target: T4, PDZD7_3, Q9H5P4
# Test: holdup assay
# Design: key: below the threshold = too weak to quantify, mostly under pKd 3.1 to 4
# Conditions: plain residues with an end cap or a label only (N-terminal biotin on a linker: ado-ado)
row,pKd,Binder
1,4.73,B1

# Molecular target: T5, TJP3_3, O95049
# Test: holdup assay
# Design: key: below the threshold = too weak to quantify, mostly under pKd 3.1 to 4
# Conditions: plain residues with an end cap or a label only (N-terminal biotin on a linker: ado-ado)
row,pKd,Binder
1,below the threshold,B1

# Molecular target: T6, APBA2_2, Q99767
# Test: holdup assay
# Design: key: below the threshold = too weak to quantify, mostly under pKd 3.1 to 4
# Conditions: plain residues with an end cap or a label only (N-terminal biotin on a linker: ado-ado)
row,pKd,Binder
1,below the threshold,B1

# Molecular target: T7, SYNJ2BP, P57105
# Test: holdup assay
# Design: key: below the threshold = too weak to quantify, mostly under pKd 3.1 to 4
# Conditions: plain residues with an end cap or a label only (N-terminal biotin on a linker: ado-ado)
row,pKd,Binder
1,4.38,B1

# Molecular target: T8, SNTB1, Q13884
# Test: holdup assay
# Design: key: below the threshold = too weak to quantify, mostly under pKd 3.1 to 4
# Conditions: plain residues with an end cap or a label only (N-terminal biotin on a linker: ado-ado)
row,pKd,Binder
1,5.37,B1

# Molecular target: DLG5_1, Q8TDM6
# Test: holdup assay
# Design: key: below the threshold = too weak to quantify, mostly under pKd 3.1 to 4
# Conditions: plain residues with an end cap or a label only (N-terminal biotin on a linker: ado-ado)
# Chain of DLG5_1, Q8TDM6 (Q8TDM6 617-713): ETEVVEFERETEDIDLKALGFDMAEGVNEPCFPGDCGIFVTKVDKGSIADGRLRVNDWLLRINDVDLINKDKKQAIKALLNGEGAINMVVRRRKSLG
row,pKd,Binder
1,below the threshold,B1

# Molecular target: MAGI2_5, Q86UL8
# Test: holdup assay
# Design: key: below the threshold = too weak to quantify, mostly under pKd 3.1 to 4
# Conditions: plain residues with an end cap or a label only (N-terminal biotin on a linker: ado-ado)
# Chain of MAGI2_5, Q86UL8 (Q86UL8 915-1017): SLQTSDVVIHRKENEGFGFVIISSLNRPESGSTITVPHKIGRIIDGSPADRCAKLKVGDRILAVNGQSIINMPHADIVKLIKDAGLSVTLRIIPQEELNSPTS
row,pKd,Binder
1,below the threshold,B1

# Molecular target: HTRA1, Q92743
# Test: holdup assay
# Design: key: below the threshold = too weak to quantify, mostly under pKd 3.1 to 4
# Conditions: plain residues with an end cap or a label only (N-terminal biotin on a linker: ado-ado)
# Chain of HTRA1, Q92743 (Q92743 360-477): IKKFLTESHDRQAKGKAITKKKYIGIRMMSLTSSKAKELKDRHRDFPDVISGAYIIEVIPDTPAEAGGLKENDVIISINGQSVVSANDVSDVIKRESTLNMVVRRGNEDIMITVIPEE
row,pKd,Binder
1,below the threshold,B1

# Molecular target: PDLIM1, O00151
# Test: holdup assay
# Design: key: below the threshold = too weak to quantify, mostly under pKd 3.1 to 4
# Conditions: plain residues with an end cap or a label only (N-terminal biotin on a linker: ado-ado)
# Chain of PDLIM1, O00151 (O00151 1-87): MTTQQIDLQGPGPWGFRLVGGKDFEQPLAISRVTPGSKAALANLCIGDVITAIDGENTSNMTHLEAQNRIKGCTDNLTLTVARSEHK
row,pKd,Binder
1,below the threshold,B1

# Molecular target: T9, SNTA1, Q13424
# Test: holdup assay
# Design: key: below the threshold = too weak to quantify, mostly under pKd 3.1 to 4
# Conditions: plain residues with an end cap or a label only (N-terminal biotin on a linker: ado-ado)
row,pKd,Binder
1,5.11,B1

# Molecular target: T10, SIPA1L2, Q9P2F8
# Test: holdup assay
# Design: key: below the threshold = too weak to quantify, mostly under pKd 3.1 to 4
# Conditions: plain residues with an end cap or a label only (N-terminal biotin on a linker: ado-ado)
row,pKd,Binder
1,below the threshold,B1

# Molecular target: SCRIB_2, Q14160
# Test: holdup assay
# Design: key: below the threshold = too weak to quantify, mostly under pKd 3.1 to 4
# Conditions: plain residues with an end cap or a label only (N-terminal biotin on a linker: ado-ado)
# Chain of SCRIB_2, Q14160 (Q14160 857-960): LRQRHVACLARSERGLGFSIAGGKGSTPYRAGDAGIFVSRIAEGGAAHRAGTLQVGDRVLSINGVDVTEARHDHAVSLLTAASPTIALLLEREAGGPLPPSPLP
row,pKd,Binder
1,3.75,B1

# Molecular target: MAST1, Q9Y2H9
# Test: holdup assay
# Design: key: below the threshold = too weak to quantify, mostly under pKd 3.1 to 4
# Conditions: plain residues with an end cap or a label only (N-terminal biotin on a linker: ado-ado)
# Chain of MAST1, Q9Y2H9 (Q9Y2H9 962-1065): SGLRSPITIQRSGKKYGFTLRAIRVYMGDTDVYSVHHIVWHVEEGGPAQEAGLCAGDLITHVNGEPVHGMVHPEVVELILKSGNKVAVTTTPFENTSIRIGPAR
row,pKd,Binder
1,4.31,B1

# Molecular target: GRIP2_4, Q9C0E4
# Test: holdup assay
# Design: key: below the threshold = too weak to quantify, mostly under pKd 3.1 to 4
# Conditions: plain residues with an end cap or a label only (N-terminal biotin on a linker: ado-ado)
# Chain of GRIP2_4, Q9C0E4 (Q9C0E4 446-548): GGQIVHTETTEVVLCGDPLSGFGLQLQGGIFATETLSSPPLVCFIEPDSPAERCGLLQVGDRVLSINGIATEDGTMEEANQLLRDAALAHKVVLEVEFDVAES
row,pKd,Binder
1,below the threshold,B1

# Molecular target: T11, DVL3, Q92997
# Test: holdup assay
# Design: key: below the threshold = too weak to quantify, mostly under pKd 3.1 to 4
# Conditions: plain residues with an end cap or a label only (N-terminal biotin on a linker: ado-ado)
row,pKd,Binder
1,below the threshold,B1

# Molecular target: Inadl_4, Q8NI35
# Test: holdup assay
# Design: key: below the threshold = too weak to quantify, mostly under pKd 3.1 to 4
# Conditions: plain residues with an end cap or a label only (N-terminal biotin on a linker: ado-ado)
# Chain of Inadl_4, Q8NI35 (Q8NI35 547-651): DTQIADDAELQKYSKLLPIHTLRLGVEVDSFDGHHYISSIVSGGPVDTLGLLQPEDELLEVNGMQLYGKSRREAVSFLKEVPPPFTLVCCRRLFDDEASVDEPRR
row,pKd,Binder
1,below the threshold,B1

# Molecular target: T12, APBA3_1, O96018
# Test: holdup assay
# Design: key: below the threshold = too weak to quantify, mostly under pKd 3.1 to 4
# Conditions: plain residues with an end cap or a label only (N-terminal biotin on a linker: ado-ado)
row,pKd,Binder
1,below the threshold,B1

# Molecular target: GRID2IP_2, A4D2P6
# Test: holdup assay
# Design: key: below the threshold = too weak to quantify, mostly under pKd 3.1 to 4
# Conditions: plain residues with an end cap or a label only (N-terminal biotin on a linker: ado-ado)
# Chain of GRID2IP_2, A4D2P6 (A4D2P6 272-370): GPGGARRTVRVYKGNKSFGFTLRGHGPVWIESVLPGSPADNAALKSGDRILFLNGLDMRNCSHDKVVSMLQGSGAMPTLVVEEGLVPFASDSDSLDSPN
row,pKd,Binder
1,4.19,B1

# Molecular target: T13, CARD11, Q9BXL7
# Test: holdup assay
# Design: key: below the threshold = too weak to quantify, mostly under pKd 3.1 to 4
# Conditions: plain residues with an end cap or a label only (N-terminal biotin on a linker: ado-ado)
row,pKd,Binder
1,below the threshold,B1

# Molecular target: Inadl_6, Q8NI35
# Test: holdup assay
# Design: key: below the threshold = too weak to quantify, mostly under pKd 3.1 to 4
# Conditions: plain residues with an end cap or a label only (N-terminal biotin on a linker: ado-ado)
# Chain of Inadl_6, Q8NI35 (Q8NI35 1058-1167): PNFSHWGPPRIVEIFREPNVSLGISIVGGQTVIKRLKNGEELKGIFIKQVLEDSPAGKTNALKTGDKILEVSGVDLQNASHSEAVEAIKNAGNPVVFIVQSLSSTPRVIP
row,pKd,Binder
1,below the threshold,B1

# Molecular target: DLG1_1, Q12959
# Test: holdup assay
# Design: key: below the threshold = too weak to quantify, mostly under pKd 3.1 to 4
# Conditions: plain residues with an end cap or a label only (N-terminal biotin on a linker: ado-ado)
row,pKd,Binder
1,3.8,B1
